Consider one substance from patent US20210069341A1.

pEC50: −log10 of the molar value.

The test concerns the target FcRn-biotin (UniProt P55899). As to the kind of experiment: ELISA. For orientation: ELISA stands for enzyme-linked immunosorbent assay.

Chain of FcRn-biotin (P55899 24-297, chain 1 of 2): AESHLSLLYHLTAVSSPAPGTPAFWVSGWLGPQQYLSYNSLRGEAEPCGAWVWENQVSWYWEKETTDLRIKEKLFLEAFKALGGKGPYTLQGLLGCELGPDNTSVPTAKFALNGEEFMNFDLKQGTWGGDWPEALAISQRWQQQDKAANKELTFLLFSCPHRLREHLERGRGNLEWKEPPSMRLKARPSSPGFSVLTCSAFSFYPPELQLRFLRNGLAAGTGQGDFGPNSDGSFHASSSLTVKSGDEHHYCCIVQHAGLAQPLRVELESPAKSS
Chain of FcRn-biotin (main, as listed by the source, chain 2 of 2): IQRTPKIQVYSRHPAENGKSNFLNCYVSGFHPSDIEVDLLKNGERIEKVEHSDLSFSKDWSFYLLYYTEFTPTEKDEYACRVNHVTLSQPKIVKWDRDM

For LC-V205C (from UniProt P01834 1-107), the pEC50 was 6.50.

In general, pEC50 refers to the negative decadic logarithm of the EC50, by convention in mol/L. Low readings indicate a high EC50, high ones a low EC50.
